Test results published in publication PMC13036491, “RNA binding protein Musashi1 interacts with the viral genomic RNA and restricts SARS-CoV-2 infection by repressing translation”.

Molecular target: GST-Msi1 (Homo sapiens, UniProt O43347 1-362)
Assay: EMSA
Settings: protein: recombinant; tags: N-terminal GST (pGEX 5X-2); label: fluorescein-12-UTP

Chain of GST-Msi1 (O43347 whole entry): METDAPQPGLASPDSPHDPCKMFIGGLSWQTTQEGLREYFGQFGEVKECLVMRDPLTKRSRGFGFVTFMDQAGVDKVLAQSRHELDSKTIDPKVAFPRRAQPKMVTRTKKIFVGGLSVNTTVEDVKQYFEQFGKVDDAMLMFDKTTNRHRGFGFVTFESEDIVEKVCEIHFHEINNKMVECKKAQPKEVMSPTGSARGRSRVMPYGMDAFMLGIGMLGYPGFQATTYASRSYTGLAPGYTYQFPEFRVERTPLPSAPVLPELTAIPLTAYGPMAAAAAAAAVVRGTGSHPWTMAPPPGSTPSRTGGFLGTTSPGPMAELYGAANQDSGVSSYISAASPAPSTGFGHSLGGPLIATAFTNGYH

Binder	binding result
GGGAUUUUAGCCGUGCUAUCCCCA (ssRNA) [M2 mutant RNA]	no binding
GGGUAGCACAAGCCGAUGCCGUUAA (ssRNA) [M1 mutant RNA]	no binding
